Consider three molecules from publication PMC4627802, “Fine Mapping of the Interaction between C4b-Binding Protein and Outer Membrane Proteins LigA and LigB of Pathogenic Leptospira interrogans” (PLoS Neglected Tropical Diseases, 2015).

The target in assay [1] is LigB9-10 (L. interrogans). Kind of assay: ELISA; Lig tandem-domain constructs immobilised; 1 μg of C4BP mixed with heparin (0-10 mg/ml); detected with mouse monoclonal anti-C4BP α/β chains; binding without heparin set as 100%.
The target of assay [2] is LigB7-8 (L. interrogans). Described as above.
In assay [3] the target is LigA10-11 (L. interrogans). The description is as above.
In assay [4] the target is LcpA (L. interrogans). As to the kind of experiment: ELISA; LigA, LigB or LcpA immobilised; commercial C4BP in 10 mM Na2HPO4, 1.8 mM KH2PO4 with NaCl 0 to 600 mM; detected with polyclonal rabbit anti-C4BP; binding without NaCl set as 100%.
The target in assay [5] is LigBC (fragment of leptospiral immunoglobulin-like protein B, residues 631-1156) (L. interrogans). Described as above.
Assay [6] has as its target Human purified C4BP (α7β1) (human) (UniProt P04003). Kind of assay: ELISA; increasing concentrations of Lig proteins with a fixed amount of C4BP (1 μg); Kd estimated by nonlinear regression, Y = Bmax*X/(Kd + X).
Assay [7] deals with T1, Human purified C4BP (α7β1) (human, UniProt P04003 49-597; P20851 18-252).
T1 construct: also called C4BP WT (commercial); source: bought: Complement Technology (Texas, USA), human purified; copies: 7 + 1
T1 sequence 1: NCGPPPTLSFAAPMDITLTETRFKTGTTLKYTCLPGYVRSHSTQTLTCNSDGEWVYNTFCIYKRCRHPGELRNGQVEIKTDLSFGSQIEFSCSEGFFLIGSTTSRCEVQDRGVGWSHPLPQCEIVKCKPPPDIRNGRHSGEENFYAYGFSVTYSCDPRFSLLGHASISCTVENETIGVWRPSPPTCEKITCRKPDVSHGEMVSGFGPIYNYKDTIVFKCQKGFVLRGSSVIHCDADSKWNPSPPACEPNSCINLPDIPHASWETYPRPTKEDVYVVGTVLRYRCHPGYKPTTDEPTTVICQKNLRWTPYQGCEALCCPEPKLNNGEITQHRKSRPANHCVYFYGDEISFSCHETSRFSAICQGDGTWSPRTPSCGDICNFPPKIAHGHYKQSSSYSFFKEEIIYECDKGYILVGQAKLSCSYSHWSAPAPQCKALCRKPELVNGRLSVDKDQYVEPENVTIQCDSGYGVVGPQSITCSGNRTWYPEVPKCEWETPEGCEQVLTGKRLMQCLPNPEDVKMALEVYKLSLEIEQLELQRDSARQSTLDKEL
T1 sequence 2: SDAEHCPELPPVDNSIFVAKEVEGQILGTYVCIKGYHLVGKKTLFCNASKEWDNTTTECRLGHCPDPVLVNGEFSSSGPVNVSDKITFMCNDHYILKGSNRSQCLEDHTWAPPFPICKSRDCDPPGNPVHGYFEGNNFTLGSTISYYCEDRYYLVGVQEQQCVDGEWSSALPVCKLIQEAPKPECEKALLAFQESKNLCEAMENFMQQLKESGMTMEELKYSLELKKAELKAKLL
The assay is described as above. As to conditions: both partners purified.

On to “Human purified C4BP (α7β1) (from UniProt P04003 49-597; P20851 18-252) (complex)”, for which the values for the percent reduction of binding with 10 mg/ml heparin in assay [1], in assay [2] and in assay [3] were 27%, 45% and 35%, respectively. For the same molecule, the values for the percent decrease of binding at 150 mM NaCl in assay [4] and in assay [5] were 30% and 45%, respectively.
Turning to “LigBC (fragment of leptospiral immunoglobulin-like protein B, residues 631-1156) (domain or fragment)”, the Kd in assay [6] is 51.6 nM.

B1: LigAC (C-terminal fragment of leptospiral immunoglobulin-like protein A, residues 631-1225) (domain or fragment)
chain: LTVSNTNAKRGLGSTLKQGTVKVTASMGGIEDSVDFTVTQATLTSIEVSPTRASIAKGMTQKFTATGIFTDHSKKNITEQVTWKSSSKALSMLNAPGEEGTGKAIAVGKTTITATLEKLSGKTDITVTPAVLTSIQISPVKHSLVKGLTEKFSATGIYSDNSNKDITSSVTWHSSNNSVATISNTKGYQGQAYGTGTGTVNIKATLGNVSSQVSKLSVTAAELTEIVLNPTSSHKAKGLTENFKATGVFTDNSTKDITDQVTWKSSNAAYAKISNATGSKGVVNALSKGTSHISATLGSISSANATFQVTPARIASIEVTPNNFFLIKGLSHPFKAIGIYTDNTKTDITKQVSWSSSDPNVASIDNTFSLAGSATAIDDGKTNITATLSDSMSASTTLYVTSAVLIDIEVKPSIFVLSEGLTLQLTATGIYSDHSTHDLTQVVQWTSSKPSNIAIENTAGKKGKVTALAFGDSEFTATYDSIKSNRAWIFVNDEKLVNITISSSQVLTDKGSAQQFKAIGTFQGGSQLDLTDLVTWKSSDSKVVSISNSNDDRGLTTALSVGSSKISAIYGSIHSDSIDFEVTPEILASIKTEP
As to B1, the Kd in assay [7] is 88.8 ± 7.8 nM.
